{
  "source": "patent US20210386829A1",
  "about": "“COMPOSITIONS AND METHODS FOR MODULATING CGRP SIGNALING TO REGULATE INNATE LYMPHOID CELL INFLAMMATORY RESPONSES” (The Broad Institute, Inc., priority 2018, published 2021)",
  "molecules": {"B1": {"name": "IL-33: alarmin cytokine which activates ILC2s and induces their proliferation; used as stimulus (protein, UniProt Q8BVZ5 1-266, looked up)", "Interleukin-33": "MRPRMKYSNSKISPAKFSSTAGEALVPPCKIRRSQQKTKEFCHVYCMRLRSGLTIRKETSYFRKEPTKRYSLKSGTKHEENFSAYPRDSRKRSLLGSIQAFAASVDTLSIQGTSLLTQSPASLSTYNDQSVSFVLENGCYVINVDDSGKDQEQDQVLLRYYESPCPASQSGDGVDGKKLMVNMSPIKDTDIWLHANDKDYSVELQRGDVSPPEQAFFVLHKKSSDFVSFECKNLPGTYIGVKDNQLALVEEKDESCNNIMFKLSKI"}},
  "key": {"lung ILCs [1]": {"tested_on": "lung ILCs", "assay": "culture of sort-purified lung ILCs with IL-7, IL-33 or IL-25+NMU with or without CGRP (qPCR, LegendPlex, intracellular cytokine staining)", "assay_type": "cell-based, mouse", "conditions": "short-term (8 hours) IL-33 alone, no CGRP", "experimental": "(§1) ILC in vitro culture. For in vitro experiments 5,000 ILCs/well were cultured in a 96 well round bottom plate with 20 ng/ml IL-7 (R&D Systems), 200 ng/ml IL-25 (R&D Systems) or 20 ng/ml, 2 ng/ml or 0.2 ng/ml IL-33 (BioLegend) with or without 1 μg/ml Neuromedin U (US Biological). In some cases purified CD90.2^+ lung cells were first labeled with CellTrace Violet (Thermo Fisher Scientific), then sorted as described above, and cultured for 3 days under the indicated conditions.\nQuantitative real-time PCR. RNA was isolated using RNeasy Plus Mini Kit (Qiagen) and reverse transcribed to cDNA with iScript cDNA Synthesis Kit (Bio-Rad). Gene expression was analyzed by quantitative real-time PCR on a ViiA7 System (Thermo Fisher Scientific) using TaqMan Fast Advanced Master Mix (Thermo Fisher Scientific) with the following primer/probe sets: Il5 (Mm00439646_m1), Il13 (Mm00434204_m1), Il17rb (Mm00444709_m1), Nmur1 (Mm04207994_m1), Nmur2 (Mm00600704_m1), Nmu (Mm00479868_m1) and Actb (Applied Biosystems). Expression values were calculated relative to Actb detected in the same sample by duplex qPCR.\nCytokine quantification. Cytokine concentrations in BAL fluid, lung and supernatant of in vitro ILC cultures were analyzed by the LegendPlex Mouse Th Cytokine Panel (13-plex) (BioLegend) according to the manufacturer's instructions and analyzed on a FACS Calibur (BD Biosciences).\nCulture of innate lymphoid cells. Sort-purified innate lymphoid cells (ILCs) were cultured under sterile conditions in complete medium in a humidified incubator at 37° C. and 10% CO2. ILCs were plated at a density of 3,000-5,000 ILCs per well in a 96 well round-bottom plate in cell culture medium with 20 ng/ml IL-7. Depending on the experiment, different combinations of 200 ng/ml IL-25, 200 ng/ml IL-33, 1 ug/ml NMU and 100 nM CGRP were added either at start or after overnight culture with 20 ng/ml IL-7. […]\nFor flow cytometric analysis, lung cells were transferred into a 96 well V-bottom plate and stained with surface antibodies for 20 min at 4° C. in the dark. Cells were washed twice with DPBS containing 2% fetal bovine serum and transferred into 1.2 ml tubes for analysis by flow cytometry. For intracellular cytokine staining, cells were incubated in complete cell culture medium with 50 ng/ml phorbol 12-myristate 13-acetate (Sigma-Aldrich), 1 uM ionomycin (Sigma-Aldrich) and GolgiStop (Cat #554724; BD Biosciences) in a humidified incubator at 37° C. and 10% CO2. After 5 hours, cells were transferred into 96 well V-bottom plate, stained with Fixable Viability Dye eFluor 506 (Cat #65-0866-14; Thermo Fisher) and surface antibodies for 20 min at 4° C. in the dark and washed twice with DPBS containing 2% fetal bovine serum. Then, cells were incubated with BD Cytofix/Cytoperm Buffer (Cat #51-2090KZ; BD Biosciences) for 20 min, followed by a wash with BD Perm/Wash Buffer (Cat #51-2091KZ; BD Biosciences). Subsequently, cells were incubated with antibodies targeting intracellular proteins diluted in BD Perm/Wash Buffer for 20 min and after two wash steps, transferred into 1.2 ml tubes for analysis by flow cytometry. For ki67 staining, cells were stained for surface antibodies as described above, fixed with a solution of Fixation/Permeabilization Concentrate (Cat #00-5123-43; Invitrogen) and Fixation/Perm Diluent (Cat #00-5223-56; Invitrogen) for 20 min, washed with Permeabilization Buffer (Cat #00-8333-56; Invitrogen). Then, cells were incubated with ki67 antibody diluted in Permeabilization Buffer for 20 min, washed and transferred into FACS tubes. Cells were analyzed on a BD LSRFortessa (BD Biosciences) flow cytometer with 5 lasers (355 nm, 405 nm, 488 nm, 561 nm and 640 nm). Data was analyzed using FlowJo v10.5.0 software and cell populations were gated as described previously (Wallrapp 2017).\nRNA isolation and cDNA synthesis. […]"}, "lung ILCs [2]": {"tested_on": "lung ILCs", "assay": "CellTrace Violet proliferation assay of sort-purified lung ILCs", "assay_type": "cell-based, mouse", "conditions": "3 days", "experimental": "as §1\nProliferation assay. Lung cells were isolated and enriched for CD90.2 cells as described above, followed by labeling with CellTrace Violet (Cat #C34557; Thermo Fisher Scientific) according to manufacturer's instructions and subsequently stained with antibodies. After 3-day culture of sort-purified ILCs with 20 ng/ml IL-7 either alone or in combination with 200 ng/ml IL-33, 100 pM CGRP or 100 nM CGRP followed by staining, expression of CellTrace Violet in live (7AAD−) ILCs was analyzed on a BD LSRFortessa (BD Biosciences)."}},
  "data": [
    {"molecule": "B1", "values": [
      {"measurement": "frequency of IL-13-positive ILC2s (intracellular cytokine staining)", "setting": "lung ILCs [1]", "value": "~13", "unit": "%"},
      {"measurement": "ILC2 proliferation", "setting": "lung ILCs [2]; IL-7+IL-33 vs IL-7 alone, absent CGRP", "value": "induced significant ILC2 proliferation"},
      {"measurement": "IL-33-activated ILCs that divided at least once", "setting": "lung ILCs [2]; IL-7+IL-33 without CGRP", "value": "approximately 55%"}
    ]}
  ]
}
